In patent US20180291110A1 (Hoffmann-La Roche, published 2018) one finds koff data, which are given here for 21 molecules.

The koff is a measure of how fast the partners let go of each other.

B1: 2/99 VH11/VL15 (antibody, V domains shown)
VH: QQLLESGGGLVQPGGSLRLSCAASGFSLSSYAMSWVRQAPGKGLEWVGYIWSGGSTDYADSVKGRFTISRDNSKNTLYLQMNSLRAEDTAVYYCARRYGTSYPDYGDANGFDPWGQGTLVTVSS
VL: DIVMTQSPDSLAVSLGERATINCKSSQSISSYLIWYQQKPGQPPKLLIYRASTLASGVPDRFSGSGSGTDFTLTISSLQAEDVAVYYCQQAYSSSNVDNTFGGGTKVEIK
B2: 2/99 VH22/VL15 (antibody, V domains shown)
VH: QSMQESGPGLVKPSQTLSLTCTVSGFSLSSYAMSWVRQHPGKGLEWIGYIWSGGSTDYASWAKSRVTISVDTSKNQVSLKLSSVTAADTAVYYCARRYGTSYPDYGDANGFDPWGQGTLVTVSS
VL: DIVMTQSPDSLAVSLGERATINCKSSQSISSYLIWYQQKPGQPPKLLIYRASTLASGVPDRFSGSGSGTDFTLTISSLQAEDVAVYYCQQAYSSSNVDNTFGGGTKVEIK
B3: 2/99 VH13/VL15 (antibody, V domains shown)
VH: QVQLQESGPGLVKPSETLSLTCTVSGFSLSSYAMSWIRQPPGKGLEWIGYIWSGGSTDYNPSLKSRVTISVDTSKNQVSLKLSSVTAADTAVYYCARRYGTSYPDYGDANGFDPWGQGTLVTVSS
VL: DIVMTQSPDSLAVSLGERATINCKSSQSISSYLIWYQQKPGQPPKLLIYRASTLASGVPDRFSGSGSGTDFTLTISSLQAEDVAVYYCQQAYSSSNVDNTFGGGTKVEIK
B4: 2/99 VH16/VL15 (antibody, V domains shown)
VH: QQLQESGPGLVKPSETLSLTCTVSGFSLSSYAMSWVRQPPGKGLEWIGYIWSGGSTDYNPSLKSRVTISVDTSKNQVSLKLSSVTAADTAVYYCARRYGTSYPDYGDANGFDPWGPGTLVTVSS
VL: DIVMTQSPDSLAVSLGERATINCKSSQSISSYLIWYQQKPGQPPKLLIYRASTLASGVPDRFSGSGSGTDFTLTISSLQAEDVAVYYCQQAYSSSNVDNTFGGGTKVEIK
B5: 2/99 VH17/VL15 (antibody, V domains shown)
VH: QQLQESGPGLVKPSETLSLTCTVSGFSLSSYAMSWVRQPPGKGLEWIGYIWSGGSTDYNPSLKSRVTISKDTSKNQVSLKLSSVTAADTAVYYCARRYGTSYPDYGDANGFDPWGPGTLVTVSS
VL: DIVMTQSPDSLAVSLGERATINCKSSQSISSYLIWYQQKPGQPPKLLIYRASTLASGVPDRFSGSGSGTDFTLTISSLQAEDVAVYYCQQAYSSSNVDNTFGGGTKVEIK
B6: 2/99 VH1/VL17 (antibody, V domains shown)
VH: VQLVETGGGLIQPGGSLRLSCAASGFSLSSYAMSWVRQAPGKGLEWVGYIWSGGSTDYADSVKGRFTISRDNSKNTLYLQMNSLRAEDTAVYYCARRYGTSYPDYGDANGFDPWGQGTLVTVSS
VL: AIQLTQSPSSLSASVGDRVTITCRASQSISSYLAWYQQKPGKAPKLLIYRASTLASGVPSRFSGSGSGTDFTLTISSLQPEDFATYYCQQTYSSSNVDNTFGGGTKVEIK
B7: 2/99 VH21/VL15 (antibody, V domains shown)
VH: QSMQESGPGLVKPSQTLSLTCTVSGFSLSSYAMSWIRQHPGKGLEWIGYIWSGGSTDYASWAKSRVTISVDTSKNQVSLKLSSVTAADTAVYYCARRYGTSYPDYGDANGFDPWGQGTLVTVSS
VL: DIVMTQSPDSLAVSLGERATINCKSSQSISSYLIWYQQKPGQPPKLLIYRASTLASGVPDRFSGSGSGTDFTLTISSLQAEDVAVYYCQQAYSSSNVDNTFGGGTKVEIK
B8: 2/99 VH9/VL17 (antibody, V domains shown)
VH: QQLLESGGGLVQPGGSLRLSCAASGFTFSSYAMSWVRQAPGKGLEWVGYIWSGGSTDYADSVKGRFTISRDNSKNTLYLQMNSLRAEDTAVYYCAKRYGTSYPDYGDANGFDPWGQGTLVTVSS
VL: AIQLTQSPSSLSASVGDRVTITCRASQSISSYLAWYQQKPGKAPKLLIYRASTLASGVPSRFSGSGSGTDFTLTISSLQPEDFATYYCQQTYSSSNVDNTFGGGTKVEIK
B9: 2/99 VH15/VL15 (antibody, V domains shown)
VH: QQLQESGPGLVKPSETLSLTCTVSGFSLSSYAMSWVRQPPGKGLEWIGYIWSGGSTDYNPSLKSRVTISVDTSKNQVSLKLSSVTAADTAVYYCARRYGTSYPDYGDANGFDPWGQGTLVTVSS
VL: DIVMTQSPDSLAVSLGERATINCKSSQSISSYLIWYQQKPGQPPKLLIYRASTLASGVPDRFSGSGSGTDFTLTISSLQAEDVAVYYCQQAYSSSNVDNTFGGGTKVEIK
B10: 2/99 VH7/VL17 (antibody, V domains shown)
VH: QQLVETGGGLIQPGGSLRLSCAASGFSLSSYAMSWVRQAPGKGLEWIGYIWSGGSTDYASWAKGRFTISRDNSKNTLYLQMNSLRAEDTAVYYCARRYGTSYPDYGDANGFDPWGQGTLVTVSS
VL: AIQLTQSPSSLSASVGDRVTITCRASQSISSYLAWYQQKPGKAPKLLIYRASTLASGVPSRFSGSGSGTDFTLTISSLQPEDFATYYCQQTYSSSNVDNTFGGGTKVEIK
B11: 2/99 VH12/VL15 (antibody, V domains shown)
VH: QVQLQESGPGLVKPSETLSLTCTVSGFSLSSYAMSWIRQPPGKGLEWIGYIWSGGSTDYNPSLKSRVTISVDTSKNQFSLKLSSVTAADTAVYYCARRYGTSYPDYGDANGFDPWGQGTLVTVSS
VL: DIVMTQSPDSLAVSLGERATINCKSSQSISSYLIWYQQKPGQPPKLLIYRASTLASGVPDRFSGSGSGTDFTLTISSLQAEDVAVYYCQQAYSSSNVDNTFGGGTKVEIK
B12: 2/99 VH18/VL15 (antibody, V domains shown)
VH: QVQLQESGPGLVKPSQTLSLTCTVSGFSLSSYAMSWIRQHPGKGLEWIGYIWSGGSTDYAPSLKSRVTISVDTSKNQFSLKLSSVTAADTAVYYCARRYGTSYPDYGDANGFDPWGQGTLVTVSS
VL: DIVMTQSPDSLAVSLGERATINCKSSQSISSYLIWYQQKPGQPPKLLIYRASTLASGVPDRFSGSGSGTDFTLTISSLQAEDVAVYYCQQAYSSSNVDNTFGGGTKVEIK
B13: 2/99 VH20/VL15 (antibody, V domains shown)
VH: QSMQESGPGLVKPSQTLSLTCTVSGFSLSSYAMSWIRQHPGKGLEWIGYIWSGGSTDYAPSLKSRVTISVDTSKNQVSLKLSSVTAADTAVYYCARRYGTSYPDYGDANGFDPWGQGTLVTVSS
VL: DIVMTQSPDSLAVSLGERATINCKSSQSISSYLIWYQQKPGQPPKLLIYRASTLASGVPDRFSGSGSGTDFTLTISSLQAEDVAVYYCQQAYSSSNVDNTFGGGTKVEIK
B14: 2/99 VH11/VL17 (antibody, V domains shown)
VH: QQLLESGGGLVQPGGSLRLSCAASGFSLSSYAMSWVRQAPGKGLEWVGYIWSGGSTDYADSVKGRFTISRDNSKNTLYLQMNSLRAEDTAVYYCARRYGTSYPDYGDANGFDPWGQGTLVTVSS
VL: AIQLTQSPSSLSASVGDRVTITCRASQSISSYLAWYQQKPGKAPKLLIYRASTLASGVPSRFSGSGSGTDFTLTISSLQPEDFATYYCQQTYSSSNVDNTFGGGTKVEIK
B15: 2/99 VH5/VL17 (antibody, V domains shown)
VH: QSMEETGGGLIQPGGSLRLSCAASGFSLSSYAMSWVRQAPGKGLEWVGYIWSGGSTDYADSVKGRFTISRDNSKNTLYLQMNSLRAEDTAVYYCARRYGTSYPDYGDANGFDPWGPGTLVTVSS
VL: AIQLTQSPSSLSASVGDRVTITCRASQSISSYLAWYQQKPGKAPKLLIYRASTLASGVPSRFSGSGSGTDFTLTISSLQPEDFATYYCQQTYSSSNVDNTFGGGTKVEIK
B16: 2/99 VH6/VL17 (antibody, V domains shown)
VH: QQLVETGGGLIQPGGSLRLSCAASGFSLSSYAMSWVRQAPGKGLEWIGYIWSGGSTDYADSVKGRFTISRDNSKNTLYLQMNSLRAEDTAVYYCARRYGTSYPDYGDANGFDPWGQGTLVTVSS
VL: AIQLTQSPSSLSASVGDRVTITCRASQSISSYLAWYQQKPGKAPKLLIYRASTLASGVPSRFSGSGSGTDFTLTISSLQPEDFATYYCQQTYSSSNVDNTFGGGTKVEIK
B17: 2/99 VH19/VL15 (antibody, V domains shown)
VH: QSMQESGPGLVKPSQTLSLTCTVSGFSLSSYAMSWIRQHPGKGLEWIGYIWSGGSTDYAPSLKSRVTISVDTSKNQFSLKLSSVTAADTAVYYCARRYGTSYPDYGDANGFDPWGQGTLVTVSS
VL: DIVMTQSPDSLAVSLGERATINCKSSQSISSYLIWYQQKPGQPPKLLIYRASTLASGVPDRFSGSGSGTDFTLTISSLQAEDVAVYYCQQAYSSSNVDNTFGGGTKVEIK
B18: 2/99 VH2/VL17 (antibody, V domains shown)
VH: EVQLVETGGGLIQPGGSLRLSCAASGFSLSSYAMSWVRQAPGKGLEWVGYIWSGGSTDYADSVKGRFTISRDNSKNTLYLQMNSLRAEDTAVYYCARRYGTSYPDYGDANGFDPWGQGTLVTVSS
VL: AIQLTQSPSSLSASVGDRVTITCRASQSISSYLAWYQQKPGKAPKLLIYRASTLASGVPSRFSGSGSGTDFTLTISSLQPEDFATYYCQQTYSSSNVDNTFGGGTKVEIK
B19: 2/99 VH8/VL17 (antibody, V domains shown)
VH: QQLVETGGGLIQPGGSLRLSCAASGFSLSSYAMSWVRQAPGKGLEWIGYIWSGGSTDYASWAKGRFTISKTSTTLYLQMNSLRAEDTAVYYCARRYGTSYPDYGDANGFDPWGQGTLVTVSS
VL: AIQLTQSPSSLSASVGDRVTITCRASQSISSYLAWYQQKPGKAPKLLIYRASTLASGVPSRFSGSGSGTDFTLTISSLQPEDFATYYCQQTYSSSNVDNTFGGGTKVEIK
B20: 2/99 VH13/VL17 (antibody, V domains shown)
VH: QVQLQESGPGLVKPSETLSLTCTVSGFSLSSYAMSWIRQPPGKGLEWIGYIWSGGSTDYNPSLKSRVTISVDTSKNQVSLKLSSVTAADTAVYYCARRYGTSYPDYGDANGFDPWGQGTLVTVSS
VL: AIQLTQSPSSLSASVGDRVTITCRASQSISSYLAWYQQKPGKAPKLLIYRASTLASGVPSRFSGSGSGTDFTLTISSLQPEDFATYYCQQTYSSSNVDNTFGGGTKVEIK
B21: 2/99 VH12/VL17 (antibody, V domains shown)
VH: QVQLQESGPGLVKPSETLSLTCTVSGFSLSSYAMSWIRQPPGKGLEWIGYIWSGGSTDYNPSLKSRVTISVDTSKNQFSLKLSSVTAADTAVYYCARRYGTSYPDYGDANGFDPWGQGTLVTVSS
VL: AIQLTQSPSSLSASVGDRVTITCRASQSISSYLAWYQQKPGKAPKLLIYRASTLASGVPSRFSGSGSGTDFTLTISSLQPEDFATYYCQQTYSSSNVDNTFGGGTKVEIK

T1 sequence (P02786 89-760 limits assumed): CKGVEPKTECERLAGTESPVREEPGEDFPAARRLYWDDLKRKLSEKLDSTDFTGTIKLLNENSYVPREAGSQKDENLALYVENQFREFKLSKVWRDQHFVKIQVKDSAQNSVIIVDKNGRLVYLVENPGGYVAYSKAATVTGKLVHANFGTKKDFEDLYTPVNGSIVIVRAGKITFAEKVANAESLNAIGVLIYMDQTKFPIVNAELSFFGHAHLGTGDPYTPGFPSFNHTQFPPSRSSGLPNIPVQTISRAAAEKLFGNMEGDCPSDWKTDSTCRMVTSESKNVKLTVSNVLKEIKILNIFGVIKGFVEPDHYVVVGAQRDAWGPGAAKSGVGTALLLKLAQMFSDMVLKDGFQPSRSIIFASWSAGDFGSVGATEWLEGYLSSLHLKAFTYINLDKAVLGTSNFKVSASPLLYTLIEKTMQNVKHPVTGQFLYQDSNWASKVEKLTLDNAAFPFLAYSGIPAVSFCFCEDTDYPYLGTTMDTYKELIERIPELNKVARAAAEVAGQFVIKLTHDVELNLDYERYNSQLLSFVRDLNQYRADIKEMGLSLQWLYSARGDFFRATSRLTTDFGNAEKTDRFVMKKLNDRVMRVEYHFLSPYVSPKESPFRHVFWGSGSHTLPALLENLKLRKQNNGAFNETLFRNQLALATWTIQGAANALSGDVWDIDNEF

This experiment concerns the target T1, human transferrin receptor (recombinant, for surface plasmon resonance) (human, UniProt P02786 89-760).
T1 construct: also called huTfR; human transferrin receptor-biotinylated
Put plainly: SPR 25C.
Consider B1, for which the koff worked out at 0.00709 s⁻¹. On to B2, for which the koff was 0.00179 s⁻¹. The result for B3 reads 0.00711 s⁻¹; that for B4, 0.00477 s⁻¹. Consider B5, for which the koff was found to be 0.00156 s⁻¹. B6: the koff is 0.00756 s⁻¹.

In the case of B7, the koff was determined as 0.00192 s⁻¹. Take B8: the koff turned out to be 0.00425 s⁻¹. For the molecule B9, the koff is 0.00603 s⁻¹. For the molecule B10, the koff came out at 0.00187 s⁻¹.

With B11, the off-rate constant (koff) turned out to be 0.00776 s⁻¹. With B12, the koff came out at 0.00758 s⁻¹. The same measure for B13: 0.00785 s⁻¹; for B14: 0.00755 s⁻¹. The result for B15 reads 0.00745 s⁻¹; that for B16, 0.00717 s⁻¹; that for B17, 0.001 s⁻¹. Turning to B18, the koff stood at 0.00712 s⁻¹. For the molecule B19, the koff came to 0.00112 s⁻¹. For B20, the dissociation rate constant (koff) worked out at 0.00339 s⁻¹. For the molecule B21, the koff is 0.00727 s⁻¹.
